# ± gives the standard deviation of the averaged measurements.
# Test system: ATP
# Experiment: switch fluorescence ratio, 500 uM ATP over buffer (Cy3 cluster intensity, sum of 5 cycles each) (fold (ratio)); higher = stronger signal-on switching upon ATP binding; sequences stand for … in TCGTCGGCAGCGTCAGATGTGTATAAGAGACAGTTTTTTTTTTTTTTTTTTTTTTTTT…TC
# Details: aptamer strand: ATP DNA aptamer (quencher-CACCTGGGGGAGTATTGCGGAGGAAGG + anchor), 100 nM annealed; ATP concentration: 500 uM
# Summary of the method: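 After annealing to 100 nM quencher-labelled ATP aptamer, Cy3-labelled switching-strand clusters on a modified Illumina MiSeq flow-cell were imaged in selection buffer. A second image followed after 15 min with 500 uM ATP at 22 °C, and five such buffer/ATP cycles were done, each separated by NaOH stripping and re-annealing. The fluorescence ratio, averaged per switch-domain sequence, is summed target-cycle over summed buffer-cycle Cy3 intensity per cluster, with clusters outside 100-1000 RFU excluded.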
# 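Also: ATP exposure 15 min at 22 °C before imaging.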
row,Sequence,switch fluorescence ratio
1,GTTTCCAGGG,1.16 ± 0.023
2,TGAGTTGTGT,1.03 ± 0.075
3,GGTTGGAGGC,1.03 ± 0.067
4,TGTCTTTTGA,1.003 ± 0.0059
5,GCTGGGTGAT,1.018 ± 0.0069
6,TGCTTTTGTC,1.01 ± 0.078
7,AACGTGTTGG,1.013 ± 0.0015
8,ATTGCTGTAC,1.56 ± 0.048
9,CACGAGCGTT,1.011 ± 0.0049
10,ACCAGGGGTT,1.19 ± 0.027
11,CATATTTTGT,1.0216 ± 0.00042
12,GGCAGAGGAG,1.01 ± 0.0063
13,GTTCAACTCA,0.993 ± 0.012
14,TCATCTGTGC,1.07 ± 0.029
15,AGTCCCGCCT,1.12 ± 0.14
16,GGGGGGTGAA,1.02 ± 0.012
17,CATGCGTTTT,1.04 ± 0.043
18,GGAGACTTGA,0.986 ± 0.024
19,ATTTATGAAA,1.04 ± 0.054
20,GGGGGACTGC,1.01 ± 0.048
21,TATTTCTTTG,0.979 ± 0.055
22,TAGAGGTG,1.11 ± 0.016
23,ACGTCCATTT,1.06 ± 0.011
24,CCTAGGGGGG,1.17 ± 0.23
25,ATTGGTATGC,1.03 ± 0.011

row,Sequence,switch fluorescence ratio
1,TTTTAGGGGG,1 ± 0.038
2,TTTTGAGTGG,0.995 ± 0.025
3,AACTATGAAC,1.03 ± 0.029
4,CCGGGTTTGT,1.05 ± 0.03
5,GGCGCCATGG,0.986 ± 0.055
6,GTGTGAAATC,0.987 ± 0.043
7,CGGGGAGGTC,1.07 ± 0.072
8,TTATGTTACT,1.059 ± 0.0023
9,TTATAGGTTA,1.02 ± 0.015
10,TTATGCAGGT,1.0341 ± 0.00034
11,TCGTCGTCCT,1.02 ± 0.024
12,ATCCGTTGCT,1.01 ± 0.048
13,CTCATTGTTG,0.992 ± 0.014
14,ACCTATGAGG,1.02 ± 0.029
15,TTTGAGATAC,1.39 ± 0.38
16,AAAGCGAGTC,1.021 ± 0.01
17,GGAGGCATAT,1.13 ± 0.039
18,AAGGAAAGGT,1.061 ± 0.0073
19,GCTGGGGGGC,0.988 ± 0.033
20,TTGATTGGCA,0.993 ± 0.025
21,TTATTTTAGG,0.988 ± 0.044
22,GGGGGCCCGG,1.03 ± 0.045
23,TATTGCTACT,1.0114 ± 6.4e-05
24,TTATAGGTGC,1.11 ± 0.022
25,GATGATCAG,0.978 ± 0.035

row,Sequence,switch fluorescence ratio
1,TCCTAGCGCC,2.02 ± 0.2
2,TTATCTGGGA,0.9995 ± 0.0079
3,ATGTTAAATG,1 ± 0.016
4,GTAGTTGGAG,0.992 ± 0.034
5,AAGTGTCATT,0.9999 ± 0.0028
6,ATCATTGCGG,0.9746 ± 0.0012
7,GGGGGGTCGG,1 ± 0.024
8,GTTGGTATT,1.01 ± 0.024
9,TCGGGTACTT,1.04 ± 0.055
10,AGGGGTGGCG,1.02 ± 0.014
11,AGACCGGGGA,0.989 ± 0.033
12,CGGATTTATA,0.979 ± 0.019
13,TTGAATTTAA,0.981 ± 0.025
14,CGGGGGTTGG,0.999 ± 0.025
15,TCATGTTGAT,1 ± 0.071
16,GGTTTCGGTG,1.008 ± 0.0098
17,CATTAGTTGG,1.006 ± 0.0052
18,GGTTTTCTTT,1 ± 0.035
19,CCAATGCTGT,1.115 ± 0.0091
20,GACGTCGGTC,0.9984 ± 0.0089
21,TTTGATGAGC,1.01 ± 0.034
22,ATGGTTTAGA,1.03 ± 0.031
23,GAATTAGACG,0.977 ± 0.01
24,TAGCTCCGAC,1.399 ± 0.0031
25,CGACCATAGC,1.84 ± 0.19

row,Sequence,switch fluorescence ratio
1,TCTGGCAATG,1.46 ± 0.061
2,CTGAAGCTAG,2.27 ± 0.0024
3,TAAAATAGTG,0.997 ± 0.047
4,TTTTTGTCCG,1.02 ± 0.042
5,ATTAGGATTT,0.998 ± 0.0097
6,ATGGTGGGTG,1.03 ± 0.046
7,TTTTTTTCTA,0.99 ± 0.014
8,CATGGGAGGG,1.01 ± 0.029
9,AAATCATTGT,1 ± 0.014
10,TTTTGCCGAG,0.994 ± 0.011
11,AGGGTGAACC,0.99 ± 0.016
12,TGTGGAACGT,0.9813 ± 0.0082
13,CGGTAGCTCT,0.989 ± 0.037
14,AGCGGCATCT,0.983 ± 0.0093
15,TTTTTATGTT,0.99 ± 0.032
16,TTGAGGCACG,1.04 ± 0.042
17,GGGAGAACG,0.98 ± 0.017
18,TAGTGAAAGT,1.007 ± 0.0071
19,GGACTGCGGT,0.979 ± 0.022
20,TCTCTGAGGA,0.985 ± 0.013
21,AAGAAGAGGG,1.02 ± 0.021
22,TTAGAGGCAG,0.967 ± 0.025
23,AATGAATAGA,1.012 ± 0.008
24,GTATTTAGGG,1.03 ± 0.039
25,TAGAATTGAG,0.984 ± 0.022

row,Sequence,switch fluorescence ratio
1,TTGGGCGTCG,0.995 ± 0.047
2,TTTACGCGGT,1.03 ± 0.015
3,TATGGAAGAG,0.977 ± 0.054
4,CATTGGTCGC,0.997 ± 0.035
5,AGGATGTAGG,1.02 ± 0.035
6,AAGGTTCTAG,0.9895 ± 0.0026
7,GGTCGAGAGG,0.971 ± 0.03
8,GGGCATAGTT,0.97 ± 0.018
9,TTTCCTGGTA,0.9817 ± 0.0073
10,CTGGTCAGGG,0.988 ± 0.013
11,TGACTGGCTT,1.014 ± 0.01
12,TGAGATCACT,1 ± 0.013
13,GGAAGTGGTA,0.976 ± 0.021
14,AATCCGGGGG,0.9661 ± 0.0022
15,TTTCGATCTC,1.028 ± 0.0026
16,TTCGCAGGGT,1.039 ± 0.0029
17,GGAAAAGGGT,0.998 ± 0.04
18,TTGAAGAAGT,0.9724 ± 0.0095
19,GCCGGTTTCT,1.01 ± 0.031
20,TTAGGGGGGG,1 ± 0.052
21,TTCCTAAAGT,0.9622 ± 0.0039
22,TTAGGGGGTA,1.12 ± 0.27
23,TAAAGAGGTA,1.02 ± 0.013
24,TTGACGTTTC,1.02 ± 0.033
25,AAAACGGGAA,1.02 ± 0.018

row,Sequence,switch fluorescence ratio
1,GGGTTAAGAG,1.01 ± 0.02
2,GGATTCATTT,1.054 ± 0.0087
3,TAAGATTTTC,0.973 ± 0.046
4,AGGTTAGGGG,0.998 ± 0.037
5,TACAAAGGCG,1.06 ± 0.018
6,CGCGAGGGTT,1.008 ± 0.007
7,TATCGGATTC,1.02 ± 0.02
8,GACTATGACC,1.05 ± 0.013
9,GGAGGGGTCA,0.9744 ± 0.0097
10,GCGAGTGTTT,1.02 ± 0.048
11,ATAGCAGTCG,1.04 ± 0.077
12,GAAGAATTAT,1.011 ± 0.0007
13,TGCGAACACT,1.002 ± 0.0064
14,TTAGAACTGA,1.02 ± 0.023
15,AAGCTCTTGT,1.01 ± 0.03
16,CGAATAGCTT,1.01 ± 0.062
17,CACTGGGATT,1.01 ± 0.018
18,CTGGGGGGCA,0.997 ± 0.017
19,CATAAAGGAG,1.01 ± 0.016
20,AAGTTCATAT,0.965 ± 0.015
21,AAATTCGATT,1.032 ± 0.0037
22,GGGGAATACG,1.11 ± 0.048
23,AATAGGGGGT,0.996 ± 0.018
24,TAGGGTCTGG,0.991 ± 0.04
25,GGGGGGTGGT,0.978 ± 0.025

row,Sequence,switch fluorescence ratio
1,CGGGCGGGGT,1.03 ± 0.051
2,GAGTTTGTCA,0.9917 ± 0.0087
3,CGGGAAAATG,0.988 ± 0.012
4,AAATATCGGT,0.971 ± 0.018
5,GTCTTGGGTG,1.02 ± 0.019
6,CAGCGAGGTC,1.05 ± 0.012
7,TGGGGGTCCC,0.991 ± 0.017
8,TATCGTAGTG,0.98 ± 0.038
9,TATCCTATTA,1.003 ± 0.0036
10,ACACGGGGAG,1.01 ± 0.044
11,TTGTGAGTGC,0.91 ± 0.023
12,GTTGCACTGG,1.01 ± 0.011
13,TGATTGCCCT,0.9925 ± 0.0044
14,TTATATGGTG,0.98 ± 0.041
15,GGGCAGGATG,1.05 ± 0.039
16,ATTTGGGCTC,0.98 ± 0.029
17,CTCCGGCTGG,1.19 ± 0.14
18,CCATTTGTT,1.04 ± 0.035
19,TATAATGTGG,0.967 ± 0.015
20,CGGTGGTGGC,1.13 ± 0.015
21,CAAAAGCGAG,1.014 ± 0.0055
22,CGTTGGTTCC,1.034 ± 0.0058
23,TTCCTGGCCT,1.02 ± 0.033
24,TCATGTTTCG,1 ± 0.031
25,GTTGGTCCTT,0.9928 ± 0.003

row,Sequence,switch fluorescence ratio
1,TCAGAGGGAA,1.07 ± 0.1
2,ATTTCTATTT,1.01 ± 0.059
3,CTTTCTTGCT,0.975 ± 0.021
4,TTTAAGGCAG,1.005 ± 0.0023
5,GGTTTTCTAA,0.9838 ± 0.0051
6,TAATGGAGGT,0.979 ± 0.038
7,CGTTCGCGCG,1.02 ± 0.023
8,GGGATAAATA,0.9996 ± 0.0023
9,GTTGGACTGG,1.01 ± 0.037
10,TAACTAAACT,1.12 ± 0.08
11,CGGCGGCAGG,0.9881 ± 0.0068
12,CGAGGTACGT,0.9867 ± 0.0046
13,GGTGTGCATA,0.994 ± 0.028
14,TAAGGGGCAT,1.04 ± 0.093
15,TTTAGGCATG,0.9966 ± 0.0076
16,TATGTTTATC,0.975 ± 0.055
17,TAACAGCTGT,1.04 ± 0.041
18,GGGGGAGGTG,1.03 ± 0.048
19,ACGGGGTCGG,1.01 ± 0.044
20,GCAATCTGGG,1.38 ± 0.079
21,TGCTTCATTT,1.023 ± 0.0018
22,ATGTTGGGCT,0.962 ± 0.018
23,CGTTTGTATA,0.987 ± 0.015
24,ATTATGTATC,0.996 ± 0.011
25,CATTAACAGG,1.03 ± 0.021
